According to article PMC6213189, “ABD-Derived Protein Blockers of Human IL-17 Receptor A as Non-IgG Alternatives for Modulation of IL-17-Dependent Pro-Inflammatory Axis” (International Journal of Molecular Sciences, 2018):
Ends that are not written are not given here. TolA = 305-residue helical TolA spacer protein; AVI = AviTag

B1: His6-ARS004-TolA-AVI (designed binder)
chain: His6-LAEAKVLANRELDKYGVSDVYKLINYACPVTWVKWVIDPILAMLP-{TolA-AVI}
modifications: also: biotin on the AviTag (in vivo biotinylated)
notes: ABD-derived variant selected by ribosome display; position 23 is deleted; source: E. coli BL21 (DE3) BirA, purified (Ni-NTA); not shown: His6, N-terminal, kept; TolA spacer protein (305 residues), C-terminal, kept
B2: His6-ARS043-TolA-AVI (designed binder)
chain: His6-LAEAKVLANRELDKYGVSDLYKNMINMALWVTGVKWLIDPILATLP
modifications: not fully specified (C-terminus); also: His6-TolA-AviTag fusion, not in given chain, biotin on the AviTag (in vivo biotinylated)
notes: ABD-derived variant selected by ribosome display; source: E. coli BL21 (DE3) BirA, purified (Ni-NTA); not shown: His6, N-terminal, kept; TolA spacer protein (305 residues), C-terminal, kept
B3: His6-ARS014-TolA-AVI (designed binder)
chain: His6-LAEAKVLANRELDKYGVSDVYKNLINYAWLVMWVPIDAILALLP-{TolA-AVI}
modifications: also: biotin on the AviTag (in vivo biotinylated)
notes: ABD-derived variant selected by ribosome display; positions 35-36 are deleted; source: E. coli BL21 (DE3) BirA, purified (Ni-NTA); not shown: His6, N-terminal, kept; TolA spacer protein (305 residues), C-terminal, kept
B4: His6-ARS019-TolA-AVI (designed binder)
chain: His6-LAEAKVLANRELDKYGVSDMYKNVINIAWWVSIVKYPIDCILALLP
modifications: not fully specified (C-terminus); also: His6-TolA-AviTag fusion, not in given chain, biotin on the AviTag (in vivo biotinylated)
notes: as for B2
B5: His6-ARS012-TolA-AVI (designed binder)
chain: His6-LAEAKVLANRELDKYGVSDVYKLINMALYVTGVKPWIDVILAVLP-{TolA-AVI}
modifications: also: biotin on the AviTag (in vivo biotinylated)
notes: as for B1

Each binder was assayed against T1, human IL-17RA on the cell surface (human (endogenous in THP-1 and HaCaT), UniProt Q96F46 33-866) (assay: LigandTracer Green Line (real-time binding to cells); adherent HaCaT cells on a dish; biotinylated His6-ARS-TolA-AVI added stepwise (3, 30, 90 nM by the results), then dissociation in fresh medium or PBS (ARS043); one-to-one model, TraceDrawer). Details: one partner purified.
T1 construct: human IL-17 receptor A, endogenous on the surface of human cell lines; Expression on THP-1 was confirmed with an anti-IL-17RA antibody; also called cell-surface IL-17RA; IL-17RA-expressing THP-1 cells; source: endogenous, on THP-1 cells; endogenous, on HaCaT cells

| Binder | Kd |
| --- | --- |
| B1 | 1.2 nM |
| B2 | 32 nM |
| B3 | 2 nM |
| B4 | 0.7 nM |
| B5 | 35 nM |
